Results from article PMC10182041 (2023).
Where no end group is shown, it is not given here.

Legend:
[1] = target: T1, Msi3, the sole Hsp110 of Candida albicans (Candida albicans, UniProt Q96VB9 1-701); assay: FP; +2H (100 µM)
T1 chain: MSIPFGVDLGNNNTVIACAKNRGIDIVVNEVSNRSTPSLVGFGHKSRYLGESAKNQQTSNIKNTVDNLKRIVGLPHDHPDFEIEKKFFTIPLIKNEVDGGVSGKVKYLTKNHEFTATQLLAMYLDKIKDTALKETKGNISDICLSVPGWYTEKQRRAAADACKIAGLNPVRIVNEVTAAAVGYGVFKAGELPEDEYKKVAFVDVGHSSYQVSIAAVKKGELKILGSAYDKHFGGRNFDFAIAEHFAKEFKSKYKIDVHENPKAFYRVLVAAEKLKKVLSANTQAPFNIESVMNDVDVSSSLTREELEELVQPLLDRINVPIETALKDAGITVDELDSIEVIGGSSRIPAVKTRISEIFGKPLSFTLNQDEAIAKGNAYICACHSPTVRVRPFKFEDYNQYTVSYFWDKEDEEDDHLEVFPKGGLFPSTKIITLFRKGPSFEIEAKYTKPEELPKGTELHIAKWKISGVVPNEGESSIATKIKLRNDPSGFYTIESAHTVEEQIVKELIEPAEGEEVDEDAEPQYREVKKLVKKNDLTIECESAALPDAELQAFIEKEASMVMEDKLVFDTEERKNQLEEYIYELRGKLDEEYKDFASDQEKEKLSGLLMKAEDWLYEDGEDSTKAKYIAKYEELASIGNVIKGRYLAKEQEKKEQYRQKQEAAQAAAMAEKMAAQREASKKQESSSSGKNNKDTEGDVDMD

[2] = target: T1, Msi3, the sole Hsp110 of Candida …; assay: FP

fluorescein-VYDFFVWL [TRP2-181 peptide labeled with a fluorescein at the N-terminus]
Kd [1]: 5.45 µM | Kd [2]: 0.65 µM
